Values quoted from earlier work in article PMC9542338.
Read-outs that look alike come from different tables or passages of the source.

Assays:
CD155 (Homo sapiens) [1] = target: CD155 (Homo sapiens) (UniProt P15151)
CD155 (Homo sapiens) [2] = target: CD155 (Homo sapiens) (UniProt P15151); remark: listed apart in the source

| Kd (CD155 (Homo sapiens) [1]) [µM] | Kd (CD155 (Homo sapiens) [2]) [µM] | Substance |
| --- | --- | --- |
| 0.115 |  | CD226 (from UniProt Q15762) |
|  | 0.002 | TIGIT (from UniProt Q495A1) |
